Source: article PMC6717765, “p32 is a negative regulator of p53 tetramerization and transactivation” (Molecular Oncology, 2019)

B1: His-tagged p32 (wild type, recombinant) (natural protein, UniProt Q07021 74-282, looked up)
chain: LHTDGDKAFVDFLSDEIKEERKIQKHKTLPKMSGGWELELNGTEAKLVRKVAGEKITVTFNINNSIPPTFDGEEEPSQGQKVEEQEPELTSTPNFVVEVIKNDDGKKALVLDCHYPEDEVGQEDEAESDIFSIREVSFQSTGESEWKDTNYTLNTDSLDWALYDHLMDFLADRGVDNTFADELVELSTALEHQEYITFLEDLKSFVKSQ
notes: p32 (gC1qR/C1QBP/HABP1); also called His-p32; mature p32
B2: GST-p32 (233-250) D249A (domain or fragment, UniProt Q07021 233-250, looked up)
chain: WALYDHLMDFLADRGVAN
notes: also called GST-p32 D249A; source: expressed and purified on glutathione-Sepharose 4B beads
B3: GST-p53 tetramerization domain (residues 328-368) (domain or fragment, UniProt P04637 328-368, looked up)
chain: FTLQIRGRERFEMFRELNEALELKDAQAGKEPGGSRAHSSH
notes: source: bacterially produced, purified on glutathione-Sepharose 4B beads
B4: GST-p32 C-terminal domain (residues 233-282) (domain or fragment, UniProt Q07021 233-282, looked up)
chain: WALYDHLMDFLADRGVDNTFADELVELSTALEHQEYITFLEDLKSFVKSQ
notes: source: expressed and purified on glutathione-Sepharose 4B beads
B5: GST-p32 (233-250) (domain or fragment, UniProt Q07021 233-250, looked up)
chain: WALYDHLMDFLADRGVDN
notes: as for B4

Columns and labels:
Conditions in all cases: both partners purified
GST-p53 = molecular target: T1, GST-p53 (UniProt P04637 1-393); experiment: pull-down; GST or GST-p53 fusions immobilised on glutathione-Sepharose beads, His-tagged p32 in solution; overnight at 4 °C; 20 mM Tris/HCl pH 7.3, 0.2 M KCl, 0.2 mM EDTA, 20% glycerol, 0.01% Nonidet P-40; blot with anti-His
T1 construct: p53; also called GST-fused p53; source: bacterially produced, purified on glutathione-Sepharose 4B beads
T1 sequence (P04637 whole entry, the tested form may be a part): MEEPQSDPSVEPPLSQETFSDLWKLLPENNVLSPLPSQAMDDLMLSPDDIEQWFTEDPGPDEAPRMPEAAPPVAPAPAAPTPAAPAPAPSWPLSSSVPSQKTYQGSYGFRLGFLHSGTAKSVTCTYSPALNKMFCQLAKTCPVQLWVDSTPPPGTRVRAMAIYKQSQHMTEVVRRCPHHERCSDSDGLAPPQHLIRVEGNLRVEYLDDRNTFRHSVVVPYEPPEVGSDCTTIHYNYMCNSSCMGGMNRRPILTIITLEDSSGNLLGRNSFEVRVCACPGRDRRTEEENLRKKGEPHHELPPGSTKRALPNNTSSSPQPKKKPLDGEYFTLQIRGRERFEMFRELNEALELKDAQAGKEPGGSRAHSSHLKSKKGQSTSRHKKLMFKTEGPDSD

[1] = molecular target: T2, FLAG-tagged p53 (recombinant) (UniProt P04637 1-393); experiment: cross-linking; purified FLAG-p53 with or without p32 (molar ratio 1:1, 1:2, 1:4) overnight at 4 °C; 10 mM Tris/HCl pH 7.5, 50 mM NaCl, 0.1 mM EDTA, 1 mM DTT, 5% glycerol; 0.01% glutaraldehyde 10 min at 22 °C; SDS/PAGE and anti-FLAG blot for monomers, dimers, tetramers
T2 construct: p53; also called FLAG-p53; source: E. coli Rosetta 2 (DE3) pLysS, purified (anti-FLAG M2 agarose)
T2 sequence (P04637 whole entry): as the sequence (P04637 whole entry, the tested form may be a part) above

[2] = molecular target: T2, FLAG-tagged p53 (recombinant); experiment: pull-down; GST or GST-p32 fusions immobilised on glutathione-Sepharose beads, FLAG-tagged p53 in solution; overnight at 4 °C; 20 mM Tris/HCl pH 7.3, 0.2 M KCl, 0.2 mM EDTA, 20% glycerol, 0.01% Nonidet P-40; blot with anti-FLAG
[3] = molecular target: B1; experiment: pull-down; GST or GST-p53 fusions immobilised on glutathione-Sepharose beads, His-tagged p32 in solution; overnight at 4 °C; 20 mM Tris/HCl pH 7.3, 0.2 M KCl, 0.2 mM EDTA, 20% glycerol, 0.01% Nonidet P-40; blot with anti-His

Row | binding result [2] | Binder | other results
1 |  | B1 | binding result (GST-p53): binds; binding result [1]: binds
2 | binds | B2 | 
3 |  | B3 | binding result [3]: binds
4 | binds | B4 | 
5 | binds | B5 | 
